Test results: patent publication US20080019962A1
Numbering of substitutions follows the chain as printed.

B1: Fab D5 (Fab, V domains shown)
VH: EVQLLESGGGLVQPGGSLRLSCAASGFTFSRYDMHWVRQAPGKGLEWVSSISSSGGYTAYADSVKGRFTISRDNSKNTLYLQMNSLRAEDTAVYYCARGARGTSQGYWGQGTLVTVSS
VL: DIQMTQSPGTLSLSPGERGTLSCRASQFVSYSYLAWYQQKPGQAPRLLIYGASSRAKGIPDRFSGSGSGTDFTLTITRLEPEDFAVYYCQQYVPSVPWTFGQGTKVEVKR
B2: Fab D2 (Fab, V domains shown)
VH: EVQLLESGGGLVQPGGSLRLSCAASGFTFSRYRMYWVRQAPGKGLEWVSSISPSGGDTRYADSVKGRFTISRDNSQNTLYLQMNSLRAEDTAVYYCARGGPRGNKYYFDYWGQGTLVTVSS
VL: DIQMTQSPSSLSASVGDRVTITCRASQTIDNYLNWYQQKPGKAPKLVVYAASTLQTRVPSRFSGSGSGTDFTLTIDSLKPEDFATYFCQQGFSNPWTFGQGTTVAMIR
B3: Fab C9 (Fab, V domains shown)
VH: B2 VH with R33P, Y35F, S50Y, P53S, D57F, R59G, Q76K
VL: QSVLTQPASVSGSPGQSITISCTGTSSDVGHYNYVSWYQQHPGKAPKVMIYDVSSRPSGVSDRFSGSKSGNTASLAISGLQAEDEADYYCSSYTSGDTLYVFGTGTKVTVLG
B4: Fab A2 (Fab, V domains shown)
VH: B2 VH
VL: DIQMTQSPSFLSAFVGDRVTITCRASQDIRSDLAWYQQTPGKAPKLLIYAASTLKDGAPSRFSGSGSGTEFTLTISSLHPEDLATYYCQHLNGHPAFGPGTKVNIQR
B5: D5 IgG1 antibody (Fab D5 reformatted) (antibody, V domains shown)
VH: B1 VH
VL: B1 VL
B6: C9 IgG1 antibody (Fab C9 reformatted) (antibody, V domains shown)
VH: B2 VH with R33P, Y35F, S50Y, P53S, D57F, R59G, Q76K
VL: B3 VL

These binders were tested against protease domain of Endotheliase-2 (ET2) (human) (UniProt Q9BYE2) (assay: continuous in vitro enzyme assay, inhibition of ET2 protease activity by soluble Fab).
Sequence of protease domain of Endotheliase-2 (ET2) (human) (Q9BYE2 other isoform, or with tags, fused parts or gaps limits assumed): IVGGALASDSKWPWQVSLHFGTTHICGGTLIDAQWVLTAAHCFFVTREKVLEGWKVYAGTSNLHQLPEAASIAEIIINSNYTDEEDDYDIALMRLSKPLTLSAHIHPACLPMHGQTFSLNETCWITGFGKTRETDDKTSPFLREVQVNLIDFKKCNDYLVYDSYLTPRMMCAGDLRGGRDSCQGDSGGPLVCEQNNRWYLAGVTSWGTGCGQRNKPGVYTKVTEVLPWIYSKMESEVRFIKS

Question: B1 was tested. Which Ki did it give?
Answer: 0.07 nM

Question: For B2, which Ki is on record?
Answer: 0.09 nM

Question: For B3, which Ki is on record?
Answer: 0.26 nM

Question: Which Ki does the source give for B4 here?
Answer: 0.16 nM

The binders below were run against protease domain of Endotheliase-2 (ET2) (human) (UniProt Q9BYE2) (assay: continuous in vitro enzyme assay on rET2, IgG1).

Question: With B5 as the binder, how does the Ki read?
Answer: 0.086 nM

Question: With B6 as the binder, how does the Ki read?
Answer: 0.11 nM

The binders below were run against protease domain of Endotheliase-2 (ET2) (human) (UniProt Q9BYE2) (assay: continuous in vitro enzyme assay on rET2, Fab).

Question: For B1, which Ki is on record?
Answer: 0.07 nM

Question: Which Ki does the source give for B2 here?
Answer: 0.095 nM

Question: B3 was tested. Which Ki did it give?
Answer: 0.31 nM

Question: For B4, which Ki is on record?
Answer: 0.15 nM
